These results are taken from a protein production outcome set (Wang et al. 2014).

The data set can be described thus: label from the status in PepcDB records.
“MEYTTLAVLAGLPEDPHGAVGLPIYAVAAYGFKTLEEGQERFATGEGYVYARQKDPTAKALEERLKALEGALEAVVLASGQAATFAALLALLRPGDEVVAAKGLFGQTIGLFGQVLSLMGVTVRYVDPEPEAVREALSAKTRAVFVETVANPALLVPDLEALATLAEEAGVALVVDNTFGAAGALCRPLAWGAHVVVESLTKWASGHGSVLGGAVLSRETELWRNYPQFLQPDLKGQIPWEALRARCFPERVRTLGLSLCGMALSPFNAYLLFQGLETVALRVARMSETARFLAERLQGHPKVKALRYPGLPEDPAHRNARKYLASGGPILTLDLGDLERASRFLGAIRLLKAANLGDARTLLVHPWTTTHSRLKEEARLQAGVTPGLVRVSVGLEDPLDLLALFEEALEAV”: the protein production entry is “not failed”.
As for “MEYVNPEGLRLDGRRFNEMRQIVAEVGVVSKADGSAVFEMGNTKVIAAVYGPREIQNKSQQKKNDHAVVLCEYSMAQFSTGDRRRQKFDRRSTELSLVIRQTMEACILTELMPHSQIDIFLQVLQADGGTRSACINAATLALADAGIPMRDLAVSCSAGYLNSTPLLDLNYVEDSAGGADVTVGILPKLDKVSLLQMDAKLPMETFETVFALASEGCKAIAERIREVLQENTKQLEYRRAA”, the protein production entry is listed as “failed”.
“MEYVYAALILNEADEEINEDNLTDVLDAAGVDVEESRVKALVAALEDVDIEEAVDQAAAAPVPASGGAAAPAEGDADEADEADEEAEEEAADDGGDDDDDEDDEASGEGLGELFGLEHHHHHH”: the protein production result was “not failed”.
For “MFALISKINPGAWWLIFAIATDVLSTFYSAKGNGLVNKTAQGIALVLYIISFACAAIALKYMQAGILYVLWSGVGVLATAFLAKIFLGQNIDVAGWIGIGFITVGLMIIAQYY” the value was “failed”; for “MFALPQAGDRRGEIIKVLLSNGWDYMNGLLTLGKVGEPQIPTPEVLTKILVELGPFYIKLGQLLSTRPDLLPPRYINALTALQSNVPPLPWSAIEDLLQREFPQPLGETFQEIESEPIAAGSIGQIHRAVLQSGETVAIKVKRPGIDVIVEQDSLLIKDVAELLALTEFGQNYDIVKLADEFTQTVKAELNFDTEAAYTNNLRTNLAKTTWFDPNQLVIPKVYWELTNQKFLVLEWLDGVPILTADLTQPPSDKDIAEKKKEITTLLFRAFFQQLYVDGFFHADPHPGNIFYLADGRLALIDCGMVGRLDPRTRQLLTEMLLAIVDLDAKRCAQLTVELSESVGRVNFQRLEVDYERMLRKYYDLSLSEFNFSEVVYEFLRIARVNKLKVPACLGLYAKCLANLEGAG”, “failed”.
For “MFAQLVMGPAGSGKSTYCHALQQHGEIVGQLVHVVNLDPAAERFEYKPVADIRDLITVTDVAEELSLGPNGSLVYCMEYLLEDQDWLEQVLSETAEDDYLVFDMPGQIELYTHFECVRQFVYVLQSQFSMRVCSIFLLDAQFLADASKFFAGSLTAMAAMLHLGLPHLNVLSKADLLRHRIEHRDNTLEPLSSDAEAPNSDEALDEFLERFLNPDIQSLVSELSEQMDTRYRALNERIGALLEDYAIVQFVPYSATDEDSIGELLLRANLLLQYDDDRDVRIHPELD” the value was “failed”; for “MFASLVIPVSAQANSGEMPQEQQLAVKYMDALTEHDYKTLITFYNRDSIFFDKTANRKYTGGRFIIDFLERAHQGVLEYDFNIEHMYNAGSLVVMIGNYHFKGPGEQFGKPGKIIDVAIPAVTSLKLDMLNRRVTEHVDLIDYQTMSDQLAMQ”, “not failed”; for “MFCTLAGYRWLNSGSLLRRLSQRAVRRLPTAPLCHLHNGATESAASNGALRIVDEKVAYRRYATVFERTVQYPDGRHVTYDILGQPAVQSASVLVFPFDTQSKTCYVIREYCPGPNRVLYGFPAGMVETKHESLEAAARAELSEEAHLRCAQLIDLTAQAAVWERSFEVPNTASDAENCLRGFFADKYSRNVCKMYLALNPEPDGHPGSMDAEELIEQVGAVRVPQLEAWLWSGQMTMPHMLLAMCALTYLRQRGMLT”, “failed”.
Regarding “MFDRLKNGEKIAPIVKEVESQITEVHKRADEVIESNQFRVLESFGKHKISDSHFIPTTGYGYDDIGRDTLEKVYADVFGAEAGLVRPQIISGTHAISTALFGILRPGDELLYITGKPYDTLEEIVGVRGKGVGSFKEYNIGYNAVPLTEGGLVDFEAVAAAIHSNTKMIGIQRSKGYATRPSFTISQIKEMIAFVKEIKPDVVVFVDNCYGEFIEEQEPCHVGADLMAGSLIKNPGGGIVKTGGYIVGKEQYVEACAYRLTSPGIGAEAGASLYSLQEMYQGFFLAPHVAGQALKGAIFTAAFLEKLGMNTSPAWNAPRTDLIQSVQFDDKDRMIAFCQAIQYASPINSHFTPYANYMPGYEDDVIMAAGTFIQGASIELSADGPIRPPYVAYVQGGLTYSHVKIAICSAIDELIEKNLLTISLEHHHHHH”, the protein production result was “not failed”.
As for “MFEASTFLLFMGSAIMLIIIPGPDLVFTITQGMTNGRKAGVITAMGLSLGNIVHTLAAVLGLSLIIQTSVVVFTIFKLAGAMYLFYLAYKALKHRKEEIRVNSEKTNDLKGLFLRGLIMNVLNPKVAIFYLTFLPQFVNYQSANISLQLCILGLIFIIMTAIIFSIFGYFSGTFRDRLLKNSRFNEYMNIAATIIFIGLGLKLMTTQL”, the protein production entry is recorded as “failed”.
Take “MFEGERHMFDVQREELIWGDRKLVLETGKTARQADGSVVATYGETTVLATVVAGKEPKAGIDFLPLTVNYQERAYAAGRIPGGYFKREGRPSEKETLVSRLIDRPIRPLFVEGWRNDTQVVVTVLSHDLENDPDIVAMVAASAALTLSGVPFMGPIGAARVGYLNGGYKLNPLVTEIAESTLDLVVAGTQDAVLMVESEAKELSEDVMLGAVMFGHKHFQPVIEAIIRLAEKAAKEPRDFTPPENADVEAAVLAVAETELREAYKKTVKQERYAAVDAVKAKVVAALCPAEGEQKFSPEKVKAAFKEAQSKVVRWNILDTGSRIDGRDVKTVRSIVSEVGVLPRAHGSSLFTRGETQALVVATLGTGEDEQFIDALEGTYKERFLLHYNFPPYSVGETGRMGSPGRREIGHGKLAWRAIRPVLPPAHEFPYTIRVVSEITESNGSSSMASVCGGSLSLMDAGVPLRRPVAGIAMGLILEGERFAVLSDILGDEDHLGDMDFKVAGSEEGITSLQMDIKIAGITEEIMKIALAQAKDGRAHILGEMSKALTAARPELGEYAPRIETMQIPTDKIRDVIGTGGKIIREIVEKTGAKINIEDTGIVKIASSDGKAIKAAYNWIRSIVAEPEAGTIYDGTIVKIMEFGAFVNFFGAKDGLVHISELAAQRVAKVGDVVKEGQKVKVKFLGADERGKIRLSMKVVDQETGEDLTEKLKAERAERGEPEREERSDRGDRGDRGPRRDRGERRRESSGE”: the protein production entry is “failed”.
For “MFEKQFNHRTLETSLGPVEIEGPVTSQILATYKLDPGLTAFRQPAEQHEALVEIAALEEGRIIIARQGNDIIGYVTFLYPDPYETWSEGNNPYILELGAIEVAARFRGQQIGKKLLEVSMLDPAMEHYLILTTEYYWHWDLKGSGLSVWDYRKIMEKMMNHGGLVFFPTDDPEIASHPANCLMARIGKHVAPEVVAHFDALRLRRRFMYD” the value was “not failed”; for “MFESAEVGHSIDKDTYEKAVIELREALLEAQFELKQQARFPVIILINGIEGAGKGETVKLLNEWMDPRLIEVQSFLRPSDEELERPPQWRFWRRLPPKGRTGIFFGNWYSQMLYARVEGHIKEAKLDQAIDAAERFERMLCDEGALLFKFWFHLSKKQLKERLKALEKDPQHSWKLSPLDWKQSEVYDRFVHYGERVLRRTSRDYAPWYVVEGADERYRALTVGRILLEGLQAALATKERAKRQPHAAPLVSSLDNRGLLDSLDLGQYLDKDAYKEQLAAEQARLAGLIRDKRFRQHSLVAVFEGNDAAGKGGAIRRVTDALDPRQYHIVPIAAPTEEERAQPYLWRFWRHIPARRQFTIFDRSWYGRVLVERIEGFCAPADWLRAYGEINDFEEQLSEYGIIVVKFWLAIDKQTQMERFKEREKTPYKRYKITEEDWRNRDKWDQYVDAVGDMVDRTSTEIAPWTLVEANDKRFARVKVLRTINDAIEAAYKKDK”, “not failed”; for “MFGFFSPAPAIPRLPKDKVSSAYKAYRIRMFLMIFIGYTGYYLVRKNFAVASPYLIDNYGFSKTQIGLISMGLAVSYGLSKFILGNLSDKSNVKKFICFGLIASSVLSVLMGFARTVPIFLILMVFNGFFQGMGAPPCSIVLGKWFSQKERGLKMGIWNTSHNIGGGLIAPIATLCLLVFGQNHFQSIFFVPAIICTIVALFCYVIGADTPASVGLPPVEEYRNDYPEVKAEVNPTTLSSKEIMVKYVLKNKYVWYLALANIFVYLIRQGVVNWIPIYLKESKGFSAANANWAMFLFEYAAIPASILLGWLSDVVFKGKRAPLSILCMIGVIFATVAYWQTSSTLVTMISVAFIGCFIYGPQLLIGMNLIDVVPNFAVGSATGFSGLCGYLLGEFMADFVLGMIADSFGWNGAFIFIIVGAFIALLLLALTLKIKKNPQVEDKIA”, “failed”.
For “MFGGAKGGHFGVPPAGYSGAVPQSEAGTKAGPAGGRPADTMWRVRCKAKGGTHLLQGLSSRTRLRELQGQIAAITGIAPGSQRILVGYPPECLDLSDRDITLGDLPIQSGDMLIVEEDQTRPKASPAFSKYGAPSYVREALPVLTRTAVPADNSCLFTSVYYVVEGGVLNPACAPEMRRLIAQIVASDPVLYSEAILGKTNEDYCDWIRRDDTWGGAIEISILSKFYQCEICVVDTQTVRIDRFGEDAGYTKRVLLIYDGIHYDPLQRNFPDPDTPPLTIFSSNDDIVLVQALELADEARRKRQFTDVNRFTLRCMICQKGLTGQAEARDHARETGHTNFGEV” the value was “failed”.
For “MFGRCVRVKENMTYTEFVRTLSEAFSLKSTEINPIISYWMPGEMLVMIDTKRLPVYIDSQVGLNTFFMIRGRYPSLNLFVSFITTVKTLENNVSRTHGDDAESDRVSNVDENNEAVDEQDDVEDDKTDEDEEEGDNEDGDGYDDYQGDDGSMGGSTLDPTIDGSESNGEDYDYNKWNDVIVEEYGIGNVEENVILIPGEFSRLLAECTYTS” the value was “failed”.
For “MFGRDGRLKESRVQKPERQQRLFGLSTPLRSAVIPPLSAARWLLVLIVAAGVYFFHGFLFPVLAALVIAFASWPLYQRLLAGVGGNRTIAATLAILFILAFLVIPIALAGTYAINEVREWVGWAIETNRHGAVTPHWIATMPVVGDWLNEQWTTNFGHPGGIGELIQLISGANIGSIYRGALAAGGSAFGLLLTLLFMMIALFFAYRDGEHFAGQVDRLGERILPTRWERISRVVPATISSTVTGMTVIAIGEGLVLGIAYWLAGVPSPVTLGALTGVMALIPGGAPLSFTLVSIYLAASGSPMAGLALFLWGAVELFIVDKTLRPKLVGGPIKLPFLPTFFGLIGGVKTMGFLGLFIGPVLMALLVAIWREWLREVELVDELAAGSAAEIEATPQIEVLPEPGVAKKARA”, the protein production result is listed as “failed”.
Turning to “MFHAAFMEERVFSDRGSMRNACSSIEYDGCRQGQSGPLLEEKEVKRKLFGALALVAMLAAPALAEAATRGFATANVNMRSGPSTAYPAVVVIPVGAPLTVHGCLSDTPWCDVSFVNGRGWVAGRYIQTTFRQNRVYVEPRYYRDLGVPVITFEAGRYWDRYYRDRDFYRERDRWRRPPPSGGYWNAPPPSAGWDRPRPRDDWRDGRRDDGRRDEWRDPRQGGPNDGRWERRYGDWNQGDRNQDRPRRDDDRRRWEDENRDRNRDRDSNRDGNRDRPQNQYDGQRGQLEGQPRPPAPAPDAPLQGCIIGSPGCAQRLEHHHHHH”, the protein production entry was “not failed”.
Take “MFHKALWMRQWKQGKYIILLFWLTSLYQLPYKYYQEAQTQLKLSKMKFGDYTYYYSYYFQTSDGAVFFQGATLIALACLLIGWERNNQSNDFLFSMPFKRKDIFLTKWWLGVLNIITVQIICLISMYGIKNMSFHNEYQTFAPFYSYFLYATVVLIAIYTFALFIGTITGHIFSQSILTIILLFLPYGFGLLISGFIYSHTQWSVDAMGEIEYHTHEYLQHIGIISPLEYFSITYDYHPIETFDDYGNKLPSVSQDNPTERISVPSPWTLLTPFSYIITFLSIATFLYTRTPNEQSGKILLFPNLQKWFIICTVLCFGLLGGRILGGRDALLSYYVGFFLFATISYFIFTRLLKLKFAFAGK”: the protein production result is reported as “failed”.
